Data: patent US8889827B2, “Opiorphin peptide derivatives as potent inhibitors of enkephalin-degrading ectopeptidases” (Institut Pasteur, priority 2008, dated 2014)
Non-standard residues stand in square brackets, D forms with d. No end group written: not given here.

What was measured:
Type in all cases: biochemical
human NEP = molecular target: T1, human NEP (Homo sapiens, UniProt P08473); assay: Screening of opiorphin peptide-derivatives on hNEP (endopeptidase and carboxydipeptidase activities); conditions: for inhibitory potency towards human NEP (in words): screening, 50 μM final concentration, triplicate
T1 construct: devoid of their respective N-terminal cytosol and transmembrane segment; purchased R&D Systems
T1 sequence (P08473 52-750 limits assumed): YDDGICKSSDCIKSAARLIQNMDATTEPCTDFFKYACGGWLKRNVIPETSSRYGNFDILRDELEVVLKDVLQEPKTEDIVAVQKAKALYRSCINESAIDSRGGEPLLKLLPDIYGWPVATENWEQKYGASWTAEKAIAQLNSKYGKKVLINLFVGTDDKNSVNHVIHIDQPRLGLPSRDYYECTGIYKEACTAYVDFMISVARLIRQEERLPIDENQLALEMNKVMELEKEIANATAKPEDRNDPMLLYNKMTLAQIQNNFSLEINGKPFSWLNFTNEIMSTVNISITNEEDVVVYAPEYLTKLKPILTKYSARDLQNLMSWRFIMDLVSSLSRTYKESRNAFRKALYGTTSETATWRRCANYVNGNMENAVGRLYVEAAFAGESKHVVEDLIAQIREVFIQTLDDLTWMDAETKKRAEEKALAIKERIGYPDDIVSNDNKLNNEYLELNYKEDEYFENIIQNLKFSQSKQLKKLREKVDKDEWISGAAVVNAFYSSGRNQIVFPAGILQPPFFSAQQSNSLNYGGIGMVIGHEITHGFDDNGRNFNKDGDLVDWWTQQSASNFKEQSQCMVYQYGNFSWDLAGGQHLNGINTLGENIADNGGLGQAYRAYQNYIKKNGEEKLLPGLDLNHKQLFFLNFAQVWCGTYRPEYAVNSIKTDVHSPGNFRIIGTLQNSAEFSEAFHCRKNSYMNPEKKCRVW
Method: (§1) According to conditions of initial velocity measurement: the time, pH and temperature of incubation as well as enzyme and substrate concentrations were defined for each assay. Hydrolysis of substrates was measured by real-time monitoring their metabolism rate by the two peptidases in the presence and absence of tested inhibitory compound (concentrations ranging from 1 to 50 μM). These were added to the preincubation medium. The background rate of substrate autolysis representing the fluorescent signal obtained in the absence of enzyme was subtracted to calculate the initial velocities in RFU (Relative Fluorescent Unit)/min.
(§2) (2.3 min-interval successive measures) by using a fluorimeter microplate reader (monochromator Infinite 200-Tecan) at 320 nm and 420 nm excitation and emission wavelengths, respectively.
Using black half-area 96 well microplate, the standard reaction consisted of enzyme (2.5 ng) in 100 mM Tris-HCl pH 6.5 containing 50 mM NaCl (100 μl final volume). The substrate (4 μM final concentration) was added after preincubation for 10 min and the kinetics of appearance of the fluorescent signal (RFU) was directly analyzed for 40 min at 28° C. (2.3 min-interval successive measures) by using the fluorimeter reader at 320 nm excitation and 420 nm emission wavelengths.
In addition, the intramolecularly quenched fluorogenic peptide, Mca-BK2 (10 μM), was submitted to hydrolysis by 5 ng rhNEP under the same experimental conditions as those described behind.
(§3) Compounds were tested in triplicate at 50 μM final concentration.

recombinant human AP-N = molecular target: T2, recombinant human AP-N (Homo sapiens, UniProt P15144); assay: AP-N-ectopeptidase activity, Ala-Mca substrate; conditions: for inhibitory preference for human AP-N (in words): screening at 50 μM, AP-N versus NEP; for inhibitory potency towards human AP-N (in words): screening, 50 μM final concentration, triplicate
T2 construct: devoid of their respective N-terminal cytosol and transmembrane segment; purchased R&D Systems
T2 sequence (P15144 33-967 limits assumed): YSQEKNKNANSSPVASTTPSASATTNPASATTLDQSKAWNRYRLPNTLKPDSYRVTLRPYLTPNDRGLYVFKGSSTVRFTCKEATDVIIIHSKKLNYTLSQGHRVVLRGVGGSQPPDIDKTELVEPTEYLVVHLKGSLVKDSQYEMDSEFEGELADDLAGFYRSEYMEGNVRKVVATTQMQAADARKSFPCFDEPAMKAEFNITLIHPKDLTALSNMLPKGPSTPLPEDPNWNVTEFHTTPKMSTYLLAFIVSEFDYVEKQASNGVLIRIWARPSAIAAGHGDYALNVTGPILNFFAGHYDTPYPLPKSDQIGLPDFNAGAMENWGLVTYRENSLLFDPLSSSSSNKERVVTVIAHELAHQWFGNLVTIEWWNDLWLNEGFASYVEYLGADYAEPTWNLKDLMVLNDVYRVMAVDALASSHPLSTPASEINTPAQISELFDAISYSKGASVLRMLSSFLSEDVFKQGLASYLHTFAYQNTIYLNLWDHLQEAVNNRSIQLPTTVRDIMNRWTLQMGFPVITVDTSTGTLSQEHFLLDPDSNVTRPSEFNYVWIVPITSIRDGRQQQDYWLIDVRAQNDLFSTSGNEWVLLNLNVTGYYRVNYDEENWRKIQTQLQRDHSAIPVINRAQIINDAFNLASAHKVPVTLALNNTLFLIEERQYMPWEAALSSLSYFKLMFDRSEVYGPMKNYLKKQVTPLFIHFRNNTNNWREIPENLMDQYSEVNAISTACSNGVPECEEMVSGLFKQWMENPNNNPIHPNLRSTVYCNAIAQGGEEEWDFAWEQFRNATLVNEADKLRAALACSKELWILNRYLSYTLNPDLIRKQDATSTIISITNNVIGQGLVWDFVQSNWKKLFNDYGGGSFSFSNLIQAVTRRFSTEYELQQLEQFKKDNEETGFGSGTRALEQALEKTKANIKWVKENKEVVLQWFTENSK
Method: (§4) Formal kinetic analysis was performed for each assay using real-time fluorescence monitoring of specific substrate hydrolysis.
(§5) Recombinant human NEP and recombinant human AP-N (devoid of their respective N-terminal cytosol and transmembrane segment) that were purchased from R&D Systems, were used as pure source of peptidase.
FRET is the distance-dependant transfer of energy from a donor fluorophore (Abz=ortho-aminobenzoyl or Mca=7-methoxycoumarin-4-yl-acetyl) to an acceptor fluorophore (DnpOH=2,4-dinitrophenyl or EDDnp=2,4-dinitrophenyl ethylenediamine). • L-alanine-Mca, Ala-Mca, a fluorogenic substrate for measuring aminopeptidase activity was purchased from Sigma.
as §1
Measurement of AP-N-ectopeptidase activity using Ala-Mca substrate. Using black half-area 96 well microplate the standard reaction consisted of enzyme (4 ng) in 100 mM Tris-HCl pH 7.0 (100 μl final volume).
as §3

[1] = molecular target: T3, membrane-bound human NEP expressed by LNCaP epithelial cells (Homo sapiens, UniProt P08473); assay: Substance P cleavage by membrane-bound hNEP of human cell membranes; conditions: increase vs Opiorphin native peptide in the same test
T3 construct: human cell membranes as source of hNEP; endogenous in cells; host or cells: LNCaP epithelial cells (membranes)
T3 sequence (P08473 whole entry): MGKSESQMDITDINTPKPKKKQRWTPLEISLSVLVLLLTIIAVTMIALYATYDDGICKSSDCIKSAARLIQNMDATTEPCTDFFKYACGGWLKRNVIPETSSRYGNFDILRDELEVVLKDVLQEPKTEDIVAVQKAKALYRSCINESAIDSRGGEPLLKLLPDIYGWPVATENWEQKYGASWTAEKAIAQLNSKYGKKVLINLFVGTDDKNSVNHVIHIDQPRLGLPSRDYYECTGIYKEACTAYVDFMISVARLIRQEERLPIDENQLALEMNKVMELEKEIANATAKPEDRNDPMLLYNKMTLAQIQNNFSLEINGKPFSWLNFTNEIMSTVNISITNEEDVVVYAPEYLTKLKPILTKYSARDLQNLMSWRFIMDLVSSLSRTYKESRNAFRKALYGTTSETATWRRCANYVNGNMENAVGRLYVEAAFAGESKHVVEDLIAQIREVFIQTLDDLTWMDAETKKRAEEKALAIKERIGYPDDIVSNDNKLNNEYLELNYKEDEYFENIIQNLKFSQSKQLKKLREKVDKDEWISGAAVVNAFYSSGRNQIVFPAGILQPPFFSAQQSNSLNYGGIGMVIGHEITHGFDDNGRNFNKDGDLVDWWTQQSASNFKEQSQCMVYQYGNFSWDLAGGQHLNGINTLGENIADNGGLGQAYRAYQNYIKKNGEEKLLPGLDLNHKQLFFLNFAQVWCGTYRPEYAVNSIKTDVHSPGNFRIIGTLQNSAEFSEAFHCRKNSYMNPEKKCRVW

[2] = molecular target: T4, recombinant human NEP (rhNEP-Endopeptidase activity) (Homo sapiens, UniProt P08473); assay: NEP-endopeptidase activity, FRET substrate Abz-dR-G-L-EDDnp; conditions: screening at 50 μM and IC50 comparison, NEP endopeptidase versus AP-N
T4 construct: devoid of their respective N-terminal cytosol and transmembrane segment; purchased R&D Systems
T4 sequence (P08473 52-750 limits assumed): as the sequence (P08473 52-750 limits assumed) above
Method: as §4, §5, §1, §2

Compound | inhibitory potency towards human NEP (in words) (human NEP) | inhibitory preference for human AP-N (in words) (recombinant human AP-N) | inhibitory potency towards hNEP compared to Opiorphin-QRFSR native peptide (in words) (human NEP) | inhibitory potency towards hAP-N compared to Opiorphin-QRFSR native peptide (in words) (recombinant human AP-N) | further results
dR-dS-dF-dR-dQ ([dR][dS][dF][dR][dQ]) [NH2-dRdSdFdRdQ-COOH] | did not display significant inhibitory activity | preference for AP-N activity |  |  | inhibitory potency towards human AP-N (in words) (recombinant human AP-N): did not display significant inhibitory activity
N=C(N)NCCC[C@H](NC(=O)[C@H](CO)NC(=O)[C@H](Cc1ccccc1)NC(=O)[C@H](CCCNC(=N)N)NC(=O)[C@H](CCC(N)=O)NC(=O)[C@@H](N)CSSC[C@H](N)C(=O)N[C@@H](CCC(N)=O)C(=O)N[C@@H](CCCNC(=N)N)C(=O)N[C@@H](Cc1ccccc1)C(=O)N[C@@H](CO)C(=O)N[C@@H](CCCNC(=N)N)C(=O)O)C(=O)O [[CQRFSR]2] |  |  |  |  | increase inhibitory potency towards hNEP-Endo and CarboxyDi-peptidase activities compared to CQRFSR monomer peptide (human NEP; increase vs CQRFSR monomer): at least 2 fold
QRFPR | weak inhibitory potency | inhibitory preference for human AP-N | weak inhibitory potency | equivalent inhibitory potency | 
QHNPR [NH2-QHNPR-COOH] | weak inhibitory potency | inhibitory preference for human AP-N | weak inhibitory potency | equivalent inhibitory potency | 
CCCCCCCC(=O)OC[C@H](NC(=O)[C@H](Cc1ccccc1)NC(=O)[C@H](CCCNC(=N)N)NC(=O)[C@H](CCC(N)=O)NC(=O)CCCCCCNC(=O)[C@@H](N)CS)C(=O)N[C@@H](CCCNC(=N)N)C(=O)O [C[PE6]QRF[S—O-Octanoyl]R, C—(—HN—(CH2)6—CO-)-QRF—S(O-octanoyl)-R] |  |  |  |  | increase inhibitory potency compared to Opiorphin native peptide, Substance P test [1]: at least 5 fold
N=C(N)NCCC[C@H](NC(=O)[C@H](CO)NC(=O)[C@H](Cc1ccccc1)NC(=O)[C@H](CCCNC(=N)N)NC(=O)[C@H](CCC(N)=O)NC(=O)[C@@H](N)CS)C(=O)O [CQRFSR-COOH, CQRFSR] | potent dual inhibitors |  |  |  | reinforced inhibitory potency towards hNEP compared to QRFSR native peptide (human NEP; increase vs QRFSR native peptide): 5 fold
QKFSR |  |  | light reduction in inhibitory potency |  | 
QRFSK |  |  | equivalent inhibitory potency |  | 
QRGPR [NH2-QRGPR-COOH] | weak inhibitory potency | inhibitory preference for human AP-N | weak inhibitory potency | equivalent inhibitory potency | 
N=C(N)NCCC[C@H](NC(=O)[C@H](CO)NC(=O)[C@H](Cc1ccccc1)NC(=O)[C@H](CCCNC(=N)N)NC(=O)[C@H](CCC(N)=O)NC(=O)CCCCCCCCCCCCNC(=O)[C@@H](N)Cc1ccc(O)cc1)C(=O)O [Y(PE12)QRFSR-COOH, Y—(—HN—(CH2)12—CO-)-QRFSR] | potent dual inhibitors |  |  |  | inhibitory preference for human NEP endopeptidase activity (in words) [2]: inhibitory preference for human NEP endopeptidase activity; inhibitory potency towards human AP-N (in words) (recombinant human AP-N): potent dual inhibitors
